assay: soluble on expression in E. coli; label from the status in PepcDB or PDB records

Row | Sequence | soluble on expression in E. coli
1 | MVRKQKRARLIYNPTSGQEIMKKNVAEVLDILESFGYETSAFQTTPRADSAKNEAARASQAGFDLVIAAGGDGTINEVVSGIAPLKRRPKVAIIPTGTTNDFARALKIPRGNPVEATKLIGKNQTIHMDIGRAYNDKYFINIAAAGSLTELTYSVPSQLKTMFGYLAYLVKGAELLPRVRNVPVKVFYDHGVFEGEASMIFVALTNSVGGFETIAPDAKLDDGKFTLILVKTANLFELTDLIRLVLTGGRHINHKKIEYIKTSYLKIIPQGNPPKRMMINLDGEYGGDAPIELRNLKNHIEFFANTDEISDDAITLDTEELVLEAIAQKFAREAESLDEMDKTKEQD | soluble
2 | MVRSMLYATDLGLYAPYVMQHALALARTFDAGLYVVHVVEPMGLFAESVLQSYLGEEALQELHGKGAHAFMEGIEQRMLDGFREELGEGHSDLSLIRTVRVVQGEPASVIIEQAHKLEVDLLVLGRHSASAQEGASIGRTAARILQSSGVPVYMVPIMSKALCQKGC | not soluble
3 | MVRVKRSQLREGCVLAEDVLGKTKRPIIPKNTVITKPLLLVLEKFLVEEVDVEPLLANGEPFPNVDSASTAAAKQPMAFYLEAVQRYKTWFQSWQAGLPVDIGEIRGVIISLFERMAGQKRELLMLHHYATKDEYLHHHAVSVGLLAGFLAMQLGYSEGECHQIALAGVLADCGMAKVSKRILTNPSALTEAEFNEVKQHPVFSYRMVQKIPALNHGAKLAVLQHHERNDGSGYPLGVKAERIHPYSQIVAVADVYHAMTSERLYRRKQSPFRAIETMQREQFGKLSTEAVAALVNNLIGLQTGAVVKLSNGEMAEVMFIPSDEPARPIVKIIETGQLLSLSVQRDIYIEEMVQG | not soluble
4 | MVRYFGFLANRVCGEKLPQVYRALGMDKPEPVAKVCYAQMVKQFLSRDPFECVLCGGRMVYRRAIAGLNVEGLKKNARDISLLRYMPA | not soluble
5 | MVSDAAERNLAFALSELDRITAQLKLPRHVEEEAARLYREAVRKGLIRGRSIESVMAACVYAACRLLKVPRTLDEIADIARVDKKEIGRSYRFIARNLNLTPKKLFVKPTDYVNKFADELGLSEKVRRRAIEILDEAYKRGLTSGKSPAGLVAAALYIASLLEGEKRTQREVAEVARVTEVTVRNRYKELVEKLKIKVPIA | soluble
6 | MVSEIVVDVGINEKRVALLEDRELVELFIERNDCERLVGNIYRGRVESVLPGMQAAFIDIGYEKNAFLYVGDAIPQKEFSEDDEEIYSDVKSYNIEEILRPGQEITVQVTKEPIGTKGPRVTTHITLPGRQMVLLPNADYIGISRRIEDEEERAKLRKIAEKIKPKNMGIIVRTVSEGKREEDFKSDLNFLVKLWAKIKQREQSGPVPRCLHKDLSVIYRAVRDIFTWNIDRFVINDRQEYNKVLELVEMISPALKMRVEYFNKNIDLFEYYQIDSMIQKALAKKVWLKCGGYIVIERTEALTVIDVNTGKYVGVNNLEDTVLRTNLDAVKEIGKQLRLRDIGGIIIIDFIDMHDPEHQKQVLEALKQVLKKDRTKTTVVGMTGLGLIEMTRKKVREGLESMMLQDCPYCEGRGKILSPESVARNVEKEISKYFTKTIANAIMVEVHPTVAEVLRGEDNDNLARIQNLFNKKVIIKPSAEVGHEEVKGSCKIKCRNI | not soluble
7 | MVSIKEHLEELLESFDYSGDVEERIRLLRAAIGRIGNMFYGTENEEIYADQVRRIKLRLRELRETYATSEDNWRELMDNLEELRDQIERLAIRGGIIEK | not soluble
8 | MVSKAINSAMNQVDGIVVVGSPGRNLEIEDEKVTFIQSQISDVGKRYFIGLEKIDADYYFLLDYDDIFLSNKVNALKRVFENGKGGAAKESEYYNPSLNYISNVIRNRIDWHISEYSFDADFKKYLLKFVEKYSIPTHVSFDKILFAIMLNYGNMHVVNSKLTEIVSHGDSRMHAKRKRKFYSETYKVFEKFKSIPDLNQSCRQYVEYTYDLNRYLSEPTRENYEHLLASGKYPIPLYKRLYYKYYSIMKPE | not soluble
9 | MVSLEKNDHLMLARQLPLKSVALILAGGRGTRLKDLTNKRAKPAVHFGGKFRIIDFALSNCINSGIRRMGVITQYQSHTLVQHIQRGWSFFNEEMNEFVDLLPAQQRMKGENWYRGTADAVTQNLDIIRRYKAEYVVILAGDHIYKQDYSRMLIDHVEKGARCTVACMPVPIEEASAFGVMAVDENDKIIEFVEKPANPPSMPNDPSKSLASMGIYVFDADYLYELLEEDDRDENSSHDFGKDLIPKITEAGLAYAHPFPLSCVQSDPDAEPYWRDVGTLEAYWKANLDLASVVPELDMYDRNWPIRTYNESLPPAKFVQDRSGSHGMTLNSLVSGGCVISGSVVVQSVLFSRVRVNSFCNIDSAVLLPEVWVGRSCRLRRCVIDRACVIPEGMVIGENAEEDARRFYRSEEGIVLVTREMLRKLGHKQER | not soluble
10 | MVTHSKFPAAGMSRPLDTSLRLKTFSSKSEYQLVVNAVRKLQESGFYWSAVTGGEANLLLSAEPAGTFLIRDSSDQRHFFTLSVKTQSGTKNLRIQCEGGSFSLQSDPRSTQPVPRFDCVLKLVHHYMPPPGTPSFSLPPTEPSSEVPEQPPAQALPGSTPKRAYYIYSGGEKIPLVLSRPLSSNVATLQHLCRKTVNGHLDSYEKVTQLPGPIREFLDQYDAPL | soluble
11 | MVTLEDMSQYLDEFLADARDRIDSLSNAILTLEKIVKEGGSEEEKTELINQIFRDAHTLKGTAATMGFMKLSETAHKMENIFDAIRNSQLELTPELVDLVLDFLDAIDAMVNNIEESGNEGDVDVSDLFERADEFLGGSKKEIKPEEKPKEAEKKEEKVAEEVPSAEGKVYYIKVKFQKDAPLKGVRAFLILSDLEERGEVIWTNPGREIIENGNLEGDVVEFRIVSETPKEELETVIKRHPEVESVEIVEEKKKEEAGEKAVEGKEYVVRVYFQPDTPLKGPRSYLILNDLEKIGEILSTNPSRQDIEEGNLIENKFFEVVLRTSESKEKISEILKKHPDVLNFTITEKEEEKKEEKKEAKKQPPKQPKKPPIIETPKVKISRVIKIDVGHLDKLMNLVGELVITKGRLEQIGERLGDRELFEALSTLSRLLTELQDEIMEMRLTPIAEVFNKFPRMVRDLARKMGKEVEFVMEGADIEVDRTILEKLGDALVHLLRNAVDHGIEPPEERVKLGKPRAGRVELIAKREKNHVVIIVRDDGRGIDPEKVKRKAVERGLITPEEAANLSDEEAINLIFLPGFSTADKVTDVSGRGVGMDVVKEVVKSMNGSISVQTEVGKGTTFILKLPISMAIIQALLIRVEDETYAIPINNILETIEVDPSILKTVGGKPVIVLRGEIIPVIMLHELFGLPAPQVDRFPAIIVDHGAQKVAIGVDELLHKRDIVIKSLGKFLSNVRGFAGATILGDGSVVLIIDIGGLLGGGYSG | soluble
12 | MVVAFLIGAGGMFAGMSLFGVNPAEVTQTISSGNASTAQGNLAKINEAYALIDSRYVEDVKDEKLVEGAIQGMLSTLKDPYSTYMDKETAKQFSESLDPELEGIGAEVNKTDGKLIIVSPIKGSPAEKIGIKPNDQILSVDGNSVKDLSREEAVLKIRGKKGTTVAIEIKRAGVADPIVFKIKREKIPIFTVFSSVKQESGKDIGYMQITSFAENTAKEFKDQLKELEKKNIKGLVIDVRGNPGGYLNSVEEILGEIMTDKKPMLQVEQRNGEKKKFSTELKERKPYPISVLIDNGSASASEILAGALKEGEGYDLIGEKTFGKGTVQQAVPFKDGSNIKLTMFKWLTPDGNWIHKKGIKPTVEVKQPDYYHATPIQIEKTLSYNANDVQVKHAQEMLKSLGYVPGREDGYFSKETESALKAFQNANKMEATGQLDKKTAEAIQTKIIEKIRSGENDLQLQSALKLMAK | not soluble
13 | MVVCSVQRLLLNFDFSENRSRSYHFTMDGKQIATTIPPVFLFNVLESVSGTDDRVLEHHHHHH | not soluble
14 | MVVRSLLRVSRLTSASCRHASLAVSSTPKPYIPSVTGVQKSMPFDNLLEQYSRVHWDDSVTYDDPNVQKLFKSLMSGSRAALASAITLVESRHPTKRAQGNMLLKMVLDEEREKYKKFGRDSMIFRVGISGSPGVGKSSFIEALGAELTENRGKKVAVLTIDPTSAMTGGSVLGDLTRMQELSRNPKAYIRQSPTSGSLGGVTRGIHEAVILCEGAGYDIVIIETVGVGQSETSVSDMCDMMCLLLSPAHGDELQGVKRGIMEMSDLLVVTKDDGDLKAKAKMTQAEYISALKFMRPRLDVWRPKVMRSSIMDKESVSEVCSSLYEFWDTIGESGDLERRRQDQMKKWMWNHVKDEIMSVFQKHPKIAHLAPKLENEIRSGKITPGLAAETMIRTFFGV | not soluble
15 | MVVSKMNKDAQMRAAINQKLIETGERERLKELLRAKLIECGWKDQLKAHCKEVIKEKGLEHVTVDDLVAEITPKGRALVPDSVKKELLQRIRTFLAQHASL | soluble
16 | MVYVKSLLRRADNFMYIVKKSSEARAALLVDLVNEEDYKELADKENIDITAVLTTHHHYDHCGGNEGFRRQFPNVMILGGDSRIPAMDRHVKHGDMAEFAGLQIKCLSTPCHTSGHICYHITNPAADSTSPGVVFTGDTLFIAGCGRFFEGTAPQMDVALNEILKNLPVETQIFPGHEYTVANLKFACHVEPGNEKAAQKLEWAQRQIEQGGFTVPSTVAEEKATNPFMRVRESEEIQKSIGTCDAVVGMAKLREMKNKF | not soluble
17 | MWAAYFEKTLVYKQNVKKSRKSKKEDPAEAEKLMKQALEEYLPKYSELLPIILARGTVTLFKNLALTAKDAMTPKEVEPEEPTEEELAQQRRQQRAAAAPQQLEFKFEVAQGMKAVSTNDPEMEKKYAAENEVVAQKQSGATWTPDELASLVRLSTEKYPAGTPNRWEQMGRVLNRSAEDVIAMAGKMKQMKQEDYTKLLMTTIQQSVPVEEKSEDDWSQAEQKAFETALQKYPKGTDERWERISEEIGSKTKKQVMVRFKQLAEMIRKKKTNDT | not soluble
18 | MWDLETDRVLNEIKTRNARKVLFQAPEGLKRAVEKEIEFLKTKIDAELMIWGETCFGACDLCDEEVTILGIDLIIHYGHEELSYVHSEIPVVFVHAYFKENEYFLKDVENILEKMENPTVTTTIQFKKALSKFNPVVILGCRAPVDNAENILFVGTGRFHPLMMAYKLKKTVKIYNPITREISEISDQEIKKLIKLRIGRVSKLLLNPPKKIGVVLSTKKGQCRLKSFENVIELLKKNNIEYIPIILNNLSQSYLFYKVDAYVICACPRIVMDDYQNYESTLLTPEELRMYLSNDFEYKFDEILENNFYLEHHHHHH | not soluble
19 | MWHSIEQAISVETGKSFYISEKKEISTRPASSSSFTCSYDNKEPPPNLSFKITDGHRSYFLKINNKDYLENFQAEAYSLKQLNSLANIASPNVTAIGTSLDKSFLVLDYIDFSKAKPMLWYQLGQQLAQMHYENRHGQFGWQHDNFIGSTIQPNHWSSNWTTFFSDQRIAWQLQLLSERSIMLGNIEHITQVCHDALLHHQVSPCLVHGDLWQGNTGFSGEKAMIFDPACYYGDREVDIAMTELFGHFPDDFYHGYQAEYPLDDGYEQRKLVYNFYHILNHANIFGGIYIDQAKATLSRIMSLPLHLEHHHHHH | not soluble
20 | MWTEQHVKEIDSIIRKKEDEQLSLPIMEQKLQINNRRYLGSKYKLLEFICKVVRENCTSVSSVADIFGGTGVVADRFNKEGKDIIVNDILYSNYLAYLTWFSNEKVNITKIEKLIKFFNESEPTEDNYVSINFGGTYFTEYNARKIGYVREEIEKMSDELNAREKAILITSLIYAMDKVANTVGHYDAYRRKLDSIKEIKLLMPEFNDGLNNGNKIFKEDANELVRKISADLIYIDTPYNSRQYGDAYHLLENIAEWEKPDLVGVAKKMIDRSHIKSDYCTMKATSAFADLISNIKGKYILVSYNNMAQKGVGRSNAKISSEEIVEILETRGTVEIFETNFQAYTTGKTNIDDHKEILYLCEVSR | not soluble
